The values that follow come from the RNAGym collection of RNA variant scans (doi:10.7554/elife.80360).

To fix the notation:
B1: HDV Ribozyme (parent)
chain: GGCCGGCAUGGUCCCAGCCUCCUCGCUGGCGCCGGCUGGGCAACAUUCCGAGGGGACCGUCCCCUCGGUAAUGGCGAAUGGGACCCA

In the data set the parent is B1. Kind of data set: self-cleavage, relative activity (ratio to wild type); higher = more cleavage; co-transcriptional.
Consider A8C A87U, for which the self-cleavage was 0.847.
Turning to C14A C57A, the self-cleavage worked out at 0.745.
Consider G28A G53A, for which the self-cleavage was 0.02.
The result for G28U G82A reads 0.191; that for C49U G82C, 0.264.
Take C18G G67A: the self-cleavage came out at 0.101.
With G55A G76C, the self-cleavage was 1.09.
As for C22U C66G, the self-cleavage was determined as 0.814.
In the case of U69A G74U, the self-cleavage worked out at 0.665.
As for C58G U72G, the self-cleavage is 0.447.
The value for G1U C48U was 0.415.
The value for U37C C66G was 0.932; that for C24G C41U was 0.102.
The value for A51C C75U was 0.141.
On to U46G C66A, for which the self-cleavage turned out to be 0.308.
The result for C48G G80U reads 0.244; that for U27A G73A, 0.391.
For C26A C64G, the self-cleavage turned out to be 0.95.
For the variant G2C G40C, the self-cleavage stood at 0.122.
In the case of U20C C24A, the self-cleavage came out at 0.
The value for U23G C41U was 0.723; that for G5U C75U was 0.0573.
Regarding G40A A70U, the self-cleavage is 0.868.
Consider G52A A83C, for which the self-cleavage is 0.374.
The value for G67U C84U was 0.771; that for G11C G28C was 0.
The value for A16C C18U was 0.375.
As to G52A U79A, the self-cleavage stood at 0.95.
As to A51U A56U, the self-cleavage worked out at 1.25.
The result for G17C A87U reads 0.171; that for U47G A70U, 1.4; that for A16C C57A, 0.852.
The result for C3A C13G reads 0.0396; that for U12C C30A, 0.193; that for A56C U60C, 0.98.
The result for C15U G73A reads 0.302; that for G59A C66A, 0.867.
With C7G A71G, the self-cleavage worked out at 0.151.
Turning to U72G C84U, the self-cleavage worked out at 0.386.
The result for C15G C22G reads 0.119.
For C3U C14G, the self-cleavage stood at 0.739.
Turning to C57U C84G, the self-cleavage stood at 0.673.
The result for C32A C62U reads 0.341.
The result for U9C A77U reads 0.867; that for C13G G74C, 0.128.
The value for G55C U72G was 0.449; that for C49A C64G was 0.356.
In the case of C22G G28A, the self-cleavage came to 0.0462.
The result for G6A C66U reads 0.521; that for C3U A78U, 0.117.
The value for G29A A43C was 0.0978; that for G54A A56G was 0.991.
The result for C4A C24G reads 0.0573.
On to C26A A87U, for which the self-cleavage was 1.21.
Consider C26A G68C, for which the self-cleavage was 0.87.
The value for G38A C44G was 0.0449; that for U65G C84A was 1.04; that for C36U C57G was 0.79.
Regarding G5A G25C, the self-cleavage amounted to 0.0923.
For the variant U47C U72A, the self-cleavage turned out to be 0.65.
As for A16G G25A, the self-cleavage was determined as 0.192.
The value for U37G G38U was 0.155; that for G29A U37C was 0.17.
The value for C62A A71G was 1.03.
For C61U G67U, the self-cleavage came to 0.842.
The value for G31C U79C was 0.282; that for U27A G81C was 0.356.
Turning to U27G A77U, the self-cleavage turned out to be 0.346.
Take G28C A51G: the self-cleavage is 0.0723.
As for G11A A78C, the self-cleavage is 0.127.
With G6C A16C, the self-cleavage is 0.712.
For the variant G52A G73U, the self-cleavage was found to be 0.338.
On to G17U G55U, for which the self-cleavage stood at 0.415.
Turning to G1C C3A, the self-cleavage turned out to be 0.234.
The result for C18A C62A reads 0.102; that for A8U C62G, 0.287; that for G11A A77C, 0.0898.
The value for G35C C66G was 0.228; that for C21G C26U was 0.0615.
The value for A51G C86U was 1.13; that for C33A A51C was 0.147.
As to G2C U46C, the self-cleavage came to 0.0475.
With G25U C58G, the self-cleavage was found to be 0.18.
As to G11C C26A, the self-cleavage turned out to be 0.462.
The value for U27A G67C was 0.59; that for C66G G76A was 1.02.
The value for G6A C84G was 0.122; that for C57A C75G was 0.0978; that for G5A A83U was 0.0426.
The result for A51U U60G reads 1.04; that for C3G C4U, 0.0171; that for G6U U20C, 0.133.
As to G74U G80U, the self-cleavage was 0.0956.
The result for A45G U46C reads 0.511; that for G2A C86U, 0.277.
The result for G1C C63G reads 0.0639; that for G52A G81C, 0.259.
The result for G2U C21A reads 0.0437; that for G25A C32U, 0.169.
Consider G35C C49A, for which the self-cleavage was determined as 0.119.
The result for A16C G50U reads 0.692; that for A77U A87C, 0.655; that for G2A G67C, 0.0536.
With C21G A87U, the self-cleavage stood at 0.0723.
The value for G17U G38C was 0.0997; that for C61U A87G was 0.933; that for C7U A70C was 0.923.
The result for G35A A45U reads 0.406; that for C13A C49A, 0.0489.
As for C26G G34C, the self-cleavage is 0.
For the variant C49U G74C, the self-cleavage amounted to 0.374.
With G1U C15G, the self-cleavage stood at 0.0852.
A8U A71U: the self-cleavage is 0.917.
The value for U37C U69C was 0.89; that for G29A C30G was 0.0415.
For the variant G5A G38A, the self-cleavage is 0.147.
On to C57U G80U, for which the self-cleavage was 0.147.
For the variant C49G C62G, the self-cleavage was 0.133.
The result for C19A G40A reads 0.109.
The value for G52C C86A was 0.997; that for G34C C57U was 0.188; that for G1C G39U was 0.116.
The value for G34A C44U was 0.0863; that for C33U G35U was 0.383.
U60C C66G: the self-cleavage was 1.02.
The value for A42G U72A was 0.369.
The value for C24U U37C was 0.753; that for C32U C75A was 0.0692.
G67C A83C: the self-cleavage came out at 0.293.
The result for C4A A45C reads 0.0519.
In the case of C18A G55U, the self-cleavage stood at 0.197.
The result for C14A C22A reads 0.0692.
The result for G28U A77U reads 0.0707.
As for C41G U47A, the self-cleavage worked out at 1.12.
In the case of C13G A56C, the self-cleavage came to 0.0489.
Take U37A G40A: the self-cleavage is 0.305.
Regarding U47C A56G, the self-cleavage came to 0.665.
The value for G25C C30G was 0.0959; that for G40A G54C was 0.926; that for G34C G54C was 0.295.
The result for G11A G35U reads 0.149; that for C18U C49G, 0.723; that for C13A C63A, 0.155.
With C14G U46C, the self-cleavage came out at 0.511.
As for C21A A70G, the self-cleavage was found to be 0.
The value for G29U A43C was 0.136; that for C57A U60A was 0.898.
The result for C21U A78C reads 0.058; that for G5C G53A, 0.162.
The result for G10U U37A reads 0.058; that for G52A G55U, 0.934.
Regarding A8C A78C, the self-cleavage is 0.302.
As to G5U, the self-cleavage is 0.469.
As to A77U, the self-cleavage was 0.623.
The value for G34U G80C was 0.143; that for G5C C84A was 0.142.
For the variant C24U G25C, the self-cleavage was 0.125.
On to G67C A71U, for which the self-cleavage worked out at 0.716.
With C4U U12A, the self-cleavage came to 0.111.
As for G5A C18U, the self-cleavage stood at 0.
Regarding A70G G76A, the self-cleavage stood at 0.92.
The result for G2U U72G reads 0; that for U69A G81U, 0.332.
The result for A16C G82A reads 0.72.
As for G31C C33U, the self-cleavage was 0.123.
As to C41A U47C, the self-cleavage is 0.932.
The result for U12G C33G reads 0.
